This is an account of results in article doi:10.1101/2023.06.26.546492.

The assay has as its target His-SUMO-tagged full-length SARS-CoV-2 nsp14 (SARS-CoV-2) (UniProt P0DTD1). Kind of assay: MST.

In general, Kd refers to the constant that tells how readily two partners part at equilibrium. A higher Kd goes with a looser complex. Take “short SARS-CoV-2 nsp10 construct (from UniProt P0DTD1 4264-4385) (domain or fragment)”: the Kd turned out to be 13.9 µM.
